In the assay the target is T1, Side-VI (Drosophila, UniProt Q0KI85).
T1 chain: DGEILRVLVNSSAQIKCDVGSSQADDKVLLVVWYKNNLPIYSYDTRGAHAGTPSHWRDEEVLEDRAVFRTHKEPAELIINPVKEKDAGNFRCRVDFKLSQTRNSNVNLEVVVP
Nature of the assay: SPR equilibrium, monomer ECD.

This passage reports Kd results from article PMC5578738 (2017).

B1: Beat-Va (protein)
chain: LFVTDISVPEIVDFRDNVTLSCSYDMRGHTLNSVKWYKDHEEFFRYSPLTSPIYMTFDVAGLQVLEGKYVCNESSCRLDLSLQGAKSTGLYKCEVSGDAPHFKLADKADNMTVAA
A word on the Kd: it is the constant that tells how readily two partners part at equilibrium. A higher Kd goes with weaker binding. The molecule B1 registered a Kd of 760 nM.

B2: Beat-Vb (protein)
chain: LRVTDINVPQIVDFRDNVTLSCSYDISGHTLNSVKWYKNGKEFFRYSPLTPPTYIPFAVEGVQLIDDGNECNESSCRVELNLLGVKSSGVYRCEVSGDAPHFQLTARDANMTVEAL
Molecule B2 registered a Kd of 2300 nM.
